Results from patent US20260274928A1.

Target: 25-strain panel of pre- and post-Omicron VSV-based SARS-CoV-2 S pseudotyped viruses
Assay: cell-based or functional assay

B1: S2V29-v37.2 (antibody, V domains shown)
VH: EVQLVESGGSVVQPGRALRLSCAASGITFSSFGMYWVRQAPGKGLEWLGYIAYDGSDTYYADSVKGRFTISRDNSKNTLYLQMNSLRIEDTAVYYCAKDYYPLLSYYYGLDVWGQGTTVTVSS
VL: QSVLTQPRSVSGSPGQSVTISCTGTSSDVGAYNYVSWYQQHPGKAPKFMIYDVDQRPSGVPDRFSGSKSGNTASLIISGLQAEDEADYYCSSYAGSYIWVFGGGTQLTVL
  IC50, pseudovirus neutralization: 1.9 to 31.2 ng/mL
  median IC50, pseudovirus neutralization: 8.2 ng/mL
